# Measured values from patent publication US6649166.
# Ends that are not written are not given here.
# T1: HLA-DR molecule encoded by the allele HLA-DRB1*0701 (human)
# T1 chain 1: not shown
# T1 chain 2: not shown
# T2: HLA-DR molecule encoded by the allele HLA-DRB1*1301 (human)
# T2 chain 1: not shown
# T2 chain 2: not shown
# T3: HLA-DR molecule encoded by the allele HLA-DRB3*0101 (human)
# T3 chain 1: not shown
# T3 chain 2: not shown
# Tests used:
# [1] = biological target: HLA-DR molecule encoded by the allele HLA-DRB1*0101 (human); test: competition ELISA, purified HLA-DR, biotinylated tracer; minus sign = loss
# [2] = biological target: HLA-DR molecule encoded by the allele HLA-DRB1*0301 (human); test: as above
# [3] = biological target: HLA-DR molecule encoded by the allele HLA-DRB1*0401 (human); test: as above
# [4] = biological target: T1, HLA-DR molecule encoded by the allele …; test: as above
# [5] = biological target: HLA-DR molecule encoded by the allele HLA-DRB1*1101 (human); test: as above
# [6] = biological target: T2, HLA-DR molecule encoded by the allele …; test: as above
# [7] = biological target: T3, HLA-DR molecule encoded by the allele …; test: as above
# [8] = biological target: T2, HLA-DR molecule encoded by the allele …; test: competition ELISA, nonbiotinylated tracer peptide against its biotinylated form
# [9] = biological target: T2, HLA-DR molecule encoded by the allele …; test: competition ELISA, nonbiotinylated peptide against the biotinylated tracer of that DR molecule
# [10] = biological target: T3, HLA-DR molecule encoded by the allele …; test: as above
# [11] = biological target: HLA-DR molecule encoded by the allele HLA-DRB1*1501 (human)
# [12] = biological target: HLA-DR molecule encoded by the allele HLA-DRB1*0301 (human); test: competition ELISA, nonbiotinylated tracer peptide against its biotinylated form
binder,measurement,setting,value
"KMYFTLIDTKAYK (modifications not checked) [peptide N89T, analog of the peptide P85-97A]",relative activity (ratio of IC50 to P85-97A),[1],1 fold
same,relative activity (ratio of IC50 to P85-97A),[2],7 fold
same,relative activity (ratio of IC50 to P85-97A),[3],2 fold
same,relative activity (ratio of IC50 to P85-97A),[4],3 fold
same,relative activity (ratio of IC50 to P85-97A),[5],2 fold
same,relative activity (ratio of IC50 to P85-97A),[6],1 fold
same,relative activity (ratio of IC50 to P85-97A),[7],2 fold
TERVRLVTRHIYNREE (not fully specified) [B1 21-36 (nonbiotinylated peptide)],IC50,[8],320 nM
same,IC50,[9],275 nM
same,IC50,[10],35000 nM
YFVAKMYFNLIDT (modifications not checked) [API m1 peptide with glycine 84 substituted by an alanine],factor of increase in affinity,[11],5 fold
AKTIAYDEEARGLE (not fully specified) [MT 2-16 (nonbiotinylated peptide)],IC50,[12],100 nM
